Measurements from patent EP3145530B1.

Experiments:
TRAIL-R1/DR4 (human) = TRAIL-R1/DR4 (human) (UniProt O00220); experiment: cell-based or functional assay
TRAIL-R2/DR5 (human) = TRAIL-R2/DR5 (human) (UniProt O14763); experiment: cell-based or functional assay
UniProt O14763, sequence (O14763 56-440): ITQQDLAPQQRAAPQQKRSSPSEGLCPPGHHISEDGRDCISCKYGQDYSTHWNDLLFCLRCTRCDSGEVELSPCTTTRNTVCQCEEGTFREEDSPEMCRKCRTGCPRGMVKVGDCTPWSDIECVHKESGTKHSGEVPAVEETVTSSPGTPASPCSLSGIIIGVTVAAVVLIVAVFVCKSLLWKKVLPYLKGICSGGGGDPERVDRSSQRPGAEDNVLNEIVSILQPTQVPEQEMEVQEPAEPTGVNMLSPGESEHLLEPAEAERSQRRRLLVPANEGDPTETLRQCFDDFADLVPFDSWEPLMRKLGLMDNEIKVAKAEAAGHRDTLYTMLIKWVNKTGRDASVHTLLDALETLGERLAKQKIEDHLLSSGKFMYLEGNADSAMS

UniProt O00220, sequence (O00220 24-468): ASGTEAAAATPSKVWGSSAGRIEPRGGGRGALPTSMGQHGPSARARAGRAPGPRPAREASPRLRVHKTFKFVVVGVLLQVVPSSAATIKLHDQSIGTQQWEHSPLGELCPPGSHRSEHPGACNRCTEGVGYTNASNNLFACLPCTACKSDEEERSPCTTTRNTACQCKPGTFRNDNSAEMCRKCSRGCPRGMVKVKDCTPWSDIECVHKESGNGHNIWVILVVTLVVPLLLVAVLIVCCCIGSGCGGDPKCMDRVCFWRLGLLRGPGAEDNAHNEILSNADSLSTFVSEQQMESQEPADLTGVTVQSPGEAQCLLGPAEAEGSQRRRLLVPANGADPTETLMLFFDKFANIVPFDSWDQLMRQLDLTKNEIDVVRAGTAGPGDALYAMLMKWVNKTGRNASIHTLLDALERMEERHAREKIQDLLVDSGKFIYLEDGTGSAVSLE

“TRAIL (TNF-related apoptosis-inducing ligand)” showed a fold increase in induced cell death (MTT, 3 h) of human primary HSCs treated at day 7 versus day 1 (TRAIL-R1/DR4 (human)) of 4.5 fold, a fold increase in induced cell death (MTT, 3 h) of human primary HSCs treated at day 14 versus day 1 (TRAIL-R1/DR4 (human)) of 7.5 fold and a fold increase in induced cell death (MTT, 3 h) of human primary PSCs from day 1 to day 14 (TRAIL-R1/DR4 (human)) of 5.5 fold. For the same substance, the fold increase in induced cell death (MTT, 3 h) of human primary HSCs treated at day 7 versus day 1 (TRAIL-R2/DR5 (human)) was 4.5 fold, the fold increase in induced cell death (MTT, 3 h) of human primary HSCs treated at day 14 versus day 1 (TRAIL-R2/DR5 (human)) was 7.5 fold and the fold increase in induced cell death (MTT, 3 h) of human primary PSCs from day 1 to day 14 (TRAIL-R2/DR5 (human)) was 5.5 fold.
